# Assay results published in US20110065123A1.
# Biological target: Rac1 (non-glucosylated) of mouse intestinal epithelial CT26 cells (mouse) (UniProt P63001)
# Experiment: cell-based or functional assay
row,Substance,"glucosylation of Rac1 in CT26 cells, 5 h (Western blot with anti-Rac1 clone 102): complete"
1,"full-length recombinant Clostridium difficile toxin A (rTcdA), His-tagged, expressed in Bacillus megaterium (from UniProt P16154 1-2710) (enzyme)",40 ng/mL
2,"full-length recombinant Clostridium difficile toxin B (rTcdB), His-tagged, expressed in Bacillus megaterium (from UniProt P18177 2-2366) (enzyme)",0.4 to 2 ng/mL
3,native TcdA (nTcdA) purified from culture supernatant of C. difficile strain VPI 10463 (from UniProt P16154 1-2710) (enzyme),40 ng/mL
4,native TcdB (nTcdB) purified from C. difficile strain VPI 10463 (from UniProt P18177 2-2366) (enzyme),0.4 to 2 ng/mL
